This note sets out measurements from paper doi:10.1101/2023.10.06.561273, “Bacterial cell surface nanoenvironment requires a specialized chaperone to activate a peptidoglycan biosynthetic enzyme” (bioRxiv, 2023).

This data set concerns the molecule itself. Description: SEC; renatured SpoVK-His6 on Superdex 200 Increase in renaturation buffer (500 mM L-arginine, 100 mM NaCl, pH 7.5), 0.75 ml/min; final peak.

B1: SpoVK-His6 (enzyme, B. subtilis, UniProt P27643 1-322, looked up)
chain: MLERAVTYKNNGQINIILNGQKQVLTNAEAEAEYQAALQKNEAKHGILKEIEKEMSALVGMEEMKRNIKEIYAWIFVNQKRAEQGLKVGKQALHMMFKGNPGTGKTTVARLIGKLFFEMNVLSKGHLIEAERADLVGEYIGHTAQKTRDLIKKSLGGILFIDEAYSLARGGEKDFGKEAIDTLVKHMEDKQHEFILILAGYSREMDHFLSLNPGLQSRFPISIDFPDYSVTQLMEIAKRMIDEREYQLSQEAEWKLKDYLMTVKSTTSPIKFSNGRFVRNVIEKSIRAQAMRLLMGDQYLKSDLMTIKSQDLSIKEEASGSA
notes: SpoVK, AAA+ ATPase of Bacillus subtilis; also called purified SpoVK
One may read the stoichiometry N as the number of molecules, sites or subunits per partner or assembly. With B1, the “stoichiometry N” value is about 3.
